According to the supplement of paper PMC9170038:

Experiments:
[1] = test system: MS2 coat protein; assay: apparent KD of MS2 coat protein; higher = weaker reporter binding; conditions: Eterna round: R107
Experimental: (§1)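 RNA-MaP round R107: designed RNA switches with theophylline, tryptophan, arginine or FMN aptamers are transcribed on-chip within common flanks. They are titrated with SNAP-549-labelled MS2 coat protein in RNA-MaP buffer (100 mM Tris pH 7.5, 80 mM KCl, 4 mM MgCl2), without ligand or with the indicated ligand. Median apparent KD per design.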

[2] = test system: K4 kissing-loop RNA reporter; assay: apparent KD of K4 kissing-loop reporter; higher = weaker reporter binding; conditions: Eterna round: R107;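 further: bound reporter read as fluorescence of individual clusters on recovered sequencing chips by microscopy, with normalized cluster intensities fitted with a binding model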
Experimental: as §1, with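 “a labelled K4 kissing-loop RNA reporter” for “SNAP-549-labelled MS2 coat protein”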

[3] = input ligand: theophylline 20 uM
[4] = input ligand: theophylline 2 mM
[5] = input ligand: tryptophan 2.4 mM

Sequence | apparent KD of MS2 coat protein ([1]; input ligand: arginine 13.2 mM) [nM] | apparent KD of MS2 coat protein ([1]; input ligand: none) [nM] | apparent KD of MS2 coat protein [1, 3] [nM] | apparent KD of MS2 coat protein [1, 4] [nM] | apparent KD of MS2 coat protein [1, 5] [nM] | apparent KD of K4 kissing-loop reporter ([2]; input ligand: FMN 200 uM) [nM] | apparent KD of K4 kissing-loop reporter ([2]; input ligand: arginine 13.2 mM) [nM] | apparent KD of K4 kissing-loop reporter ([2]; input ligand: none) [nM] | apparent KD of K4 kissing-loop reporter [2, 3] [nM] | apparent KD of K4 kissing-loop reporter [2, 5] [nM]
ACAUUUAACUGAAGGAGCGUGAUAAACAUGAGGAUCACCCAUGUACCACAGAUUUUCAGAUCACAGGUAGGUCGCAGACUAAUGA [JR_ExcArginiB_Sub014] | 9.29 | 11.1 | 14.1 | 11.3 | 11.5 |  |  |  |  | 
UGGCAAGAGGGAAGGAGCGUCAGCAGAGUAACAUGAGGAUCACCCAUGUAGCACGUGGUGUGACAGGUAGGUCGCCCUCUGCCGU [SS-ArgB13] | 28.5 | 32.4 | 77.1 | 46 | 28.3 |  |  |  |  | 
AAUAAUCUAGGUGAUACCAGCUCAACAUGAGGAUCACCCAUGUGCUCAUGAAGAGCUGAGAGCCCUUGGCAGCACCUAGAUAAUA [(Theo1)-(Ms2)-(M)'-(T)'-(Theo2)_Design2] | 461 | 739 | 676 | 28.5 | 1100 |  |  |  |  | 
ACACAUGAGGAUCACCCAUGUUCAAUAGAUACCAGUGAUACGGUGCACCCUUGGCAGCUGUUGCUGAGUGAUGGUUCCCUCGGAA [#22 SameState-TheophyllineA] | 32.9 |  | 75.6 |  | 52.5 |  |  |  |  | 
GGUUGAAACUGAAGGAGCGAGAUCACAAGAUUGGGUCUAACAUGAGGAUCACCCAUGUAAUCUCAGGUAGGUCGCAGUGACCAAA [Exclusion Arginine B GF 13] | 28 | 38.4 | 45.1 | 51.7 | 38.1 |  |  |  |  | 
GAAACGUAGGUGGAGCGGUGAAAUGGCGAUACCAGCGUGGAAACACGCCCUUGGCAGCGUUAGAACAUGAGGAUCACCCAUGUUU [#21 Exclusion-TheophyllineA] | 19.3 |  | 62.4 |  | 26.4 |  |  |  |  | 
UGGAGAUAGACGGCCGCCACUAACAUGAGGAUCACCCAUGUCGUCACGAAUGGAUGGCCCUAGAAUAGGACCGGGUCCGGAUUCA [theeternabot_exclusion_MS2_Trp_B_48] | 23.7 |  | 42.5 | 50.6 |  |  |  |  |  | 
GCUAGGCAUGCAGGAUAUCGCCGAGUGAUGUUCGGUAGGCCGCUUUCUUUCUUUCUUUGCGGCCAGCGAGAAGGGCAUGCCUAGC |  |  |  |  |  | 139 | 112 | 108 | 68 | 118
GCCUAGCAGGGAAGGAGCGCCAGGAGAAGAAAUGGAGAGAGUUGAGUGAUGUUCAAAUGGUGGCAGGUAGGUCGCCCUGCUAGGC [KL-SSArg B12] |  |  |  |  |  | 388 | 298 | 583 | 761 | 274
UGCACGGGCUCGGCCGCCACUCCCGCGGGUCGCAAGGUCCGCUACUGAGUGAUGUUCGGUUGGAGGAGGACCGGGAGCCCGUGCA [#2 Exclusion - Tryptophan B Attempt #27 (HarryS)] |  |  |  |  |  | 131 | 110 | 113 | 112 | 107
AAAUAUUGUUACCUGUUAACAUAGGGCCAACGAGGACCGGUACGGCCGCCACUCGUCUCAUAGCGAGUGAUGUUCGCACCGCCCA |  |  |  |  |  | 133 | 58.2 | 76.6 | 123 | 126
UUUUAAAUGUCUGAUACCAGAGAAAAUAUAUGUAGUGAUGUUAUAUACAAAUUAAAUAAGCUCCCUUGGCAGCAGUAUUAAUUUU [AstrosExc-TheB#10] |  |  |  |  |  | 628 | 694 | 758 | 761 | 518
AGUGAUGUGGGAAGGAGCGGUAUAAGAAUUCAGUGAUGUUGAAGUGUUGCUGUAAUAAAGAGCCAGGUAGGUCGCCUAGAUGUUA [KL-XARG B30] |  |  |  |  |  | 811 | 775 | 940 | 1120 | 562
ACGUCAUAUGUAAUGGUGGUUUCGAUCGAUACCAGUAGCGAGAGUUACCCUUGGCAGCGACAUGAGUGAUGUUCAUGUAUGAAGA [KL-XTheo-A2 #analogue] |  |  |  |  |  | 116 | 109 | 107 | 120 | 105
CCUAUCUGUUACGAUACCAGUCAAUGAUAUUUUAUCAAUGCCCUCACCGAGUGAUGUUCGGACCCUUGGCAGCGUCUGGGAUAGG [tyygpimullin] |  |  |  |  |  | 160 | 148 | 171 | 153 | 151
AGAGAGGUGUUUUUUUGAUGUGAGUAAUGGCGAGGACCGGUACGGCCGCCACUCGGGUGAUGUUAGUGAUGUUGAUGUAGUGAUG [p'pmullin] |  |  |  |  |  | 79.4 | 66.6 | 71.1 | 131 | 77
AGGAUCCACCAGUGAUGUUGGAAAUACUCCAAGGAUAUGACGAAAGUCAGAAGGUGGUAGACUGGACAAAGUCCAGUCGGAUCCA [FmnA 28 #SwitchBubble #K4Early] |  |  |  |  |  | 534 | 247 | 602 | 486 | 346
GGAGGAGAAUAUGAUACCAGCAGAGAGAGAGAGGAAGUAUAGUGAUGUUAUAUGUGAGAAUGCCCUUGGCAGCAUAACAUGAAGG [whbob_SS_Theo_B_sa90] |  |  |  |  |  | 288 | 193 | 211 | 454 | 159
UGUAUGUGAUUUGAUACCAGACCAUCUUGUGAGAAGUGAGUGAUGUUUAUUUUGGUUUGGGUCCCUUGGCAGCAAAUCGCAUACU [KL-SSTheoB23] |  |  |  |  |  | 777 | 560 | 826 | 619 | 738
UCCUGCUGUCAGCCACGAAAGUGGAUUGAUACCAGAGUCGAAAGACUCCCUUGGCAGCGAGUGAUGUUCGCAGCAGGUAAAUAAA [MatMod 3 - Jieux - Exclusion - Theophylline A] |  |  |  |  |  | 358 | 257 | 269 | 356 | 256
